Results reported in US8258099B2, “Pin1-modulating compounds and methods of use thereof” (Max-Planck-Gesellschaft zur Foerderung der Wissenschaften …, priority 2004, dated 2012).
Read-outs that look alike come from different tables or passages of the source. Values belong to the molecule of their own block, whether it stands above or below them. Square brackets hold non-standard residues; d marks the D form. * marks the point of attachment. Biotin = O=C1N[C@H]2[C@H](CS[C@H]2CCCCC(=O)*)N1; d(pT) = C[C@H](OP(=O)(O)O)[C@@H](N)C(=O)O; pT = C[C@@H](OP(=O)(O)O)[C@H](N)C(=O)O; 2Nal = N[C@@H](Cc1ccc2ccccc2c1)C(=O)O; Bta = N[C@@H](Cc1csc2ccccc12)C(=O)O; Pip = O=C(O)[C@@H]1CCCCN1; Bth = benzothiophene

Columns and labels:
[1] = molecular target: hPar14 (Homo sapiens, UniProt Q9Y237); assay: Protease coupled PPIase assay, hPar14; type: biochemical; conditions: up to 50 μM
hPar14, sequence (Q9Y237 whole entry): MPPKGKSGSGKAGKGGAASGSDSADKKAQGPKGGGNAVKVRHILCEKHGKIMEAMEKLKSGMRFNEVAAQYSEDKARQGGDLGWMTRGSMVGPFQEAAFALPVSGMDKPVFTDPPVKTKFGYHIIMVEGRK
Protocol: FIG. 6 depicts the influence of peptide 17 on the hPar14 PPIase activity. The apparent first order rate constant kobs determined for the cis to trans isomerization of the arginyl-prolyl peptide bond of the substrate Suc-Ala-Arg-Pro-Phe-NH-Np (SEQ ID NO: 3) was measured using the protease coupled PPIase assay. α-Chymotrypsin was used as isomer specific protease. As control, the nonphosphorylated derivative of peptide 17 was used.
PPIase activities were monitored on a Hewlett-Packard 8452A diode array spectrophotometer according to Fischer et al., 1984 and Zhang et al., 2002. The hPar14 PPIase activity was measured with Suc-Ala-Arg-Pro-Phe-NH-Np (SEQ ID NO: 3) (final concentration 75 μM) as substrate and α-chymotrypsin (final concentration 60 μM) as isomer specific protease. PPIase activity of hCyp 18 and FKBP12 were measured using Suc-Ala-Ala-Pro-Phe-NH-Np (SEQ ID NO: 7) as substrate (final concentration 16 μM) and α-chymotrypsin (final concentration 60 μM) as isomer specific protease. PPIase activity of hPin1 was measured with Ac-Ala-Ala-Ser(PO3H2)-Pro-Arg-NH-Np (SEQ ID NO: 4) (final concentration 10 μM) as substrate and trypsin (final concentration 60 μM) as isomer specific protease. Final concentrations of the PPIases were 1.7 μM for hPar14, 4 nM for hPin1, 7 nM for FKBP12 and 9.7 nM for hCyp18. […] Measurements were monitored at 390 nm. […]

[2] = molecular target: T1, interaction of MPM-2 antigens with GST-hPin1 (Homo sapiens, UniProt Q13526); assay: MPM-2 competition assay; type: binding; conditions: mitotic HeLa cell lysate, 8 μM GST-hPin1
T1 construct: made in house
T1 sequence (Q13526 whole entry): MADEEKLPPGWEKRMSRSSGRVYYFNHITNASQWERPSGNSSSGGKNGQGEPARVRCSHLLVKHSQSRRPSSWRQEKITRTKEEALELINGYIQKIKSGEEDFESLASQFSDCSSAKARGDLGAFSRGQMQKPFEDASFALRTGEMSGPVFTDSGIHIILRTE
Protocol: FIG. 7 depicts the influence of peptide 17 on the interaction of MPM-2 antigens with hPin1. The indicated concentration of peptide 17 or its nonphosphorylated derivative (control) was incubated with an 8 μM solution of GST-hPin1. After addition of mitotic HeLa cell lysate, GST-hPin1 was extracted from the respective mixture using glutathione sepharose. Samples were analyzed regarding extracted GST-hPin1 and coprecipitated MPM-2 antigenes by SDS PAGE and western blot analysis. Untreated lysate of mitotic HeLa cells was loaded on the first line (extract). MPM-2 antigenes were detected using the monoclonal anti MPM-2 antibody (mouse). GST-hPin1 was detected using an anti hPin1 PPIase domain antiserum (rabbit). Horseradish peroxidase-conjugated antibodies from mouse or rabbit were used as secondary antibodies. […]
1.3 mM of Peptide 17 or its nonphosphorylated derivative were incubated with GST-hPin1 (8 μM) for 2 hours at 4° C. […] Following SDS-PAGE, the samples were analyzed by western blot analysis. GST-hPin1 and coextracted MPM-2 antigens were detected using an anti hPin1 PPIase domain antiserum (rabbit) or monoclonal anti MPM-2 antibody (Upstate Biotechnology) from mouse. […]
MPM-2 antigens are mitotic phosphoproteins that are specifically recognized by the monoclonal antibody MPM-2. […] The coextracted MPM-2 antigenes were detected after SDS PAGE by western blot analysis using the anti MPM-2 antibody. […]

[3] = system: X. laevis embryos; assay: Microinjection in X. laevis embryos, cell division; type: in vivo; conditions: microinjection at stage 2
Protocol: FIG. 8 depicts the blocking of cell division by the injection of peptide 17 in X. laevis embryos. 50-300 pmol of peptide 17 or 300 pmol of its nonphosphorylated derivative (control) dissolved in 10 nl PBS buffer were microinjected in the animal half of X. laevis embryos at stage 2 of development. Embryos with large and/or apoptotic appearing cells surrounded by normally developing cells were counted after further 5 hours (stage 8-9) of development. […] Each value is the average of four independent experiments.
FIGS. 9A-F depicts phenotypic analysis of X. laevis embryos after injection of peptide 17. 300 pmol of peptide 17 or its nonphosphorylated derivative dissolved in 10 nl PBS buffer were injected in the animal half of X. laevis embryos at stage 2 of development. 1.5 hour at stage 6 (A), 2.5 hours at stage 7 (B) and 4-5 hours at stage 8-9 (C, D) after injection enlarged cells became visible. Cells that are blocked in cell division are marked with a white arrow. Controls of uninjected embryos of stage 8-9 and embryos that were injected with 300 pmol of the nonphosphorylated derivative of peptide 17 are shown in panels E and F. The site where the nonphosphorylated derivative of peptide 17 was injected is marked with a white arrow (F).
FIGS. 10A-D depict the rescue of peptide 17 caused cell division block in X. laevis embryos by hPin1 (A, B) and different hPin1 variants (C, D). FIG. 10A depicts the time course of V5-tagged hPin1 expression was analyzed by preparation of X. laevis embryo lysate 1, 2 and 4 hours after injection of 1, 2 or 3 ng of V5-tagged hPin1 mRNA. In every case, the injected volume was 10 nl. Lysates were prepared in lysis buffer containing phosphatase and protease inhibitors. Samples were separated by SDS PAGE followed by western blotting. Endogenous XlPin1 and V5-tagged hPin1 were detected using an anti hPin1 PPIase domain antiserum as primary antibody followed by incubation with a horseradish peroxidase-conjugated secondary antibody. Visualization was done using the SuperSignal® substrate. […] In every case, the whole volume of injection was 10 nl. The indicated amount of the mRNA was injected in the animal half of 30 embryos at stage 2 of development. Embryos with large and/or apoptotic appearing cells surrounded by normally developed cells were counted after additional 5 hours of development (stage 8-9). […] Each percentage of vital embryos shown in the figure is the average of four independent experiments. FIG. 10C indicates the expression of V5-tagged hPin1 variants was evaluated by preparation of embryo lysate after 4 hours of injection of the respective mRNA (2 ng) in X. laevis embryos. Lysates were prepared in lysis buffer containing phosphatase and protease inhibitors. Samples were separated using SDS PAGE followed by western blot analysis. Endogenous XlPin1 and injected V5-tagged hPin1 variants were detected using an anti hPin1 PPIase domain antiserum as primary antibody and a horseradish peroxidase-conjugated secondary antibody. Visualization was done by a chemiluminescent reaction using the SuperSignal® substrate (Pierce). FIG. 10D depicts 250 pmol of peptide 17 was coinjected with 2 ng mRNA of the indicated V5-tagged hPin1 variant (whole volume 10 nl) in the animal half of 30 X. laevis embryos at stage 2 of development. Results were analyzed as described for FIG. 10B. Each percentage of vital embryos shown in the figure is the average of four independent experiments.
Microinjection was done into the animal half of X. laevis embryos at stage 2 of development. In every case, the injection volume was 10 nl. Immunofluorescence studies of frozen X. laevis embryo sections were performed as previously described (Julius et al., 2000). Ten-micrometer cryosections of stage 8 embryos were labelled using a monoclonal anti hPin1 antibody (mouse) followed by incubation with Alexa Fluor 546™-conjugated anti mouse antibody of goat serum (Molecular Probes). […]

[4] = molecular target: T2, full-length hPin1 (human, UniProt Q13526 1-163); assay: comparison of Kd values
T2 sequence (Q13526 whole entry): as above

[5] = molecular target: T2, full-length hPin1; assay: isothermal titration calorimetry, single binding site model
[6] = molecular target: T2, full-length hPin1; assay: method not stated there (ITC value of paragraph 223 rounded); D isomer
[7] = molecular target: T2, full-length hPin1; assay: isothermal titration calorimetry, 10 °C, full-length hPin1 in the cell
[8] = molecular target: T2, full-length hPin1; assay: cell-based or functional assay
[9] = molecular target: T2, full-length hPin1; assay: cell-based or functional assay; remark: listed apart in the source
[10] = molecular target: T2, full-length hPin1; assay: inhibition of PPIase activity
[11] = molecular target: T2, full-length hPin1; assay: cell-based or functional assay; remark: listed apart in the source

inhibition of hPar14 PPIase activity [1]: No inhibition | influence on interaction of MPM-2 antigenes with GST-hPin1 [2]: had no effect
Molecule: nonphosphorylated derivative of peptide 17: nonphosphorylated derivative of peptide 17, used as control (Ac-F[dT][Pip][2Nal]Q-NH2) [reference compound]
effect on development of the embryos [3]: no visible effect

fold tighter binding against Ac-Phe-L-Thr(PO3H2)-Pip-Nal-Gln-NH2 [4]: 30 fold | Ka [5]: 5.18e+07 M⁻¹ | n (binding stoichiometry) [5]: 0.96 | Kd [6]: 19 nM | binding enthalpy ΔHbind [7]: -4.56 kcal/mol | binding entropy TΔSbind [7]: 5.43 kcal/mol
Molecule: peptide 17, Ac-Phe-D-Thr(PO3H2)-Pip-Nal-Gln-NH2

fold decrease of inhibition of hPin1 PPIase activity against peptide 15 [8]: 100 fold | IC50(µM), blockade of the PPIase activity of hPin1, protease free PPIase assay [9]: 20 µM
B1: peptide 4 (peptide)
peptide: Ac-K(Biotin)AA[Bta][pT]P[2Nal]Q-NH2

fold decrease of Ki against peptide 15 [10]: 150 fold
B2: peptide 16, Ac-Lys(N^ε-biotinoyl)-Ala-Ala-Bth-D-Thr(PO3H2)-Pip-Nal-Gln-NH2 (peptide)
peptide: Ac-K(Biotin)AA[Bta][d(pT)][Pip][2Nal]Q-NH2

IC50(µM), blockade of the PPIase activity of hPin1, protease free PPIase assay [11]: 0.21 µM
B3: peptide 15, Ac-Lys(N^ε-biotinoyl)-Ala-Ala-Bth-Thr(PO3H2)Pip-Nal-Gln-NH2 (peptide)
peptide: Ac-K(Biotin)AA[Bth][pT][Pip]AQ-NH2
modifications: not fully specified (residue 7); printed as Ac-Lys(N^ε-biotinoyl)-Ala-Ala-Bth-Thr(PO3H2)Pip-Nal-Gln-NH2
